# In publication PMC3575409, “Identification of a Novel Protein-Protein Interaction Motif Mediating Interaction of GPCR-Associated Sorting Proteins with G Protein-Coupled Receptors” (PLoS ONE, 2013):
# Values joined by “and” are separate entries in the source; they are usually repeats but may differ in a detail not shown here. Identical values can stand only once.
# B1: central domain of GASP-1: central portion of GASP-1 (AA 380 to 1073) that contains 19 GASP motif (protein)
# chain: MTKEEAKTKARARAKQEARSEEEALIGTWFWATDESSMADEASIESSLQVEDESIIGSWFWTEEEASMGTGASSKSRPRTDGERIGDSLFGAREKTSMKTGAEATSESILAADDEQVIIGSWFWAGEEVNQEAEEETIFGSWFWVIDAASVESGVGVSCESRTRSEEEEVIGPWFWSGEQVDIEAGIGEEARPGAEEETIFGSWFWAENQTYMDCRAETSCDTMQGAEEEEPIIGSWFWTRVEACVEGDVNSKSSLEDKEEAMIPCFGAKEEVSMKHGTGVRCRFMAGAEETNNKSCFWAEKEPCMYPAGGGSWKSRPEEEEDIVNSWFWSRKYTKPEAIIGSWLWATEESNIDGTGEKAKLLTEEETIINSWFWKEDEAISEATDREESRPEAEEGDIIGSWFWAGEEDRLEPAAETREEDRLAAEKEGIVGSWFGAREETIRREAGSCSKSSPKAEEEEVIIGSWFWEEEASPEAVAGVGFESKPGTEEEEITVGSWFWPEEEASIQAGSQAVEEMESETEEETIFGSWFWDGKEVSEEAGPCCVSKPEDDEEMIVESWFWSRDKAIKETGTVATCESKPENEEGAIVGSWFEAEDEVDNRTDNGSNCGSRTLADEDEAIVGSWFWAGDEAHFESNPSPVFRAICRSTCSVEQEPDPSRRPQSWEEVTVQFKPGPWGRVGFPSISPFRFPKE
# modifications: left off: GST, N-terminal, kept
# notes: central portion of GASP-1 (AA 380 to 1073) that contains 19 GASP motif
# Tested on: full-length CNR2 (cannabinoid receptor type 2)
# Test: SPR saturation binding, CNR2
# Parameters: species or system human
# Method: The human ADRB2 and CNR2 receptors were produced using the P. pastoris expression system as previously described, [16]. After methanol-induced receptor expression, cells were washed with PBS pH 7.0 and resuspended in ice-cold buffer A (50 mM Tris-HCl pH 7.4, 500 mM NaCl, 10% glycerol, 5 mM EDTA, 1 mM PMSF, 2 mM DDT). Cells were then lysed with two cycles of 20 s shaking and 20 s cooling on ice using 0.5 mm glass beads in a FastPrep 24 device. Unbroken cells and cell debris were removed by centrifugation (3000 g, 5 min, 4°C) and the membrane fraction from the supernatant was pelleted by ultracentrifugation (100,000 g, 45 min, 4°C). […] Finally membranes were resuspended in buffer B and quantified with the bicinchoninic acid (BCA) method (Pierce).
# Approximately 150 mg membrane proteins were extracted by 5 min incubation at room temperature in buffer C (50 mM Tris-HCl pH 7.4, 500 mM NaCl, 10% glycerol, 1 mM PMSF, 2 mM DTT, 50 mM imidazole, 1% (w/v) DDM, 0.1% (w/v) CHS). […] Imidazole was removed from the eluted fraction using a HiTrap 5 ml desalting column (GE Healthcare), purified proteins were quantified using the BCA assay (Pierce) and receptor integrity was analyzed by SDS-PAGE. […]
molecule,measurement,setting,value
B1,dissociation rate constant k d,"25°C, 50 mM Tris-HCl pH 7.4, 150 mM NaCl, 0.1% DDM, 0.01% CHS, captured GST-tagged central domain (AA 380–1073)",6.5±0.1×10^−4 s^−1 and < 10^−3 s^−1
same,kinetics of the interaction,full-length CNR2,very stable and had a slow association rate
